Experimental data from US20250090676A1 (SUTRO BIOPHARMA, published 2025).

What was measured:
[1] = molecular target: T1, murine folate receptor alpha (mouse, UniProt P35846 25-232); test: FACS, CHO-mFOLR1 cells;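 also: flow cytometry binding of serially diluted test antibodies to transfected CHO cells on ice, mean fluorescence intensity, parental CHO cells give background, Kd from one-site specific binding fit with Hill slope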
T1 construct: Expressed on the surface of stably transfected CHO cells; also called mouse FolR1; CHO-mouse FolR1
T1 sequence (P35846 25-232 limits assumed): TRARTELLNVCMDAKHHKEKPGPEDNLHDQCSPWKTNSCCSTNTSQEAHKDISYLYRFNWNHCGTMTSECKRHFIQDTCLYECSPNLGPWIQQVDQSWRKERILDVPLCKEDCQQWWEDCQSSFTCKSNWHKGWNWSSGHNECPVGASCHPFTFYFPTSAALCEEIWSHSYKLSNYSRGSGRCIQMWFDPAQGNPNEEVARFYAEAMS
Procedure: (§1) CHO cells were transfected to stably express human (CHO-hFOLR1), cynomolgus (CHO-cFOLR1), or mouse (CHO-mFOLR1) target molecule FOLR1 on the cell surface. Parental CHO cells were used as a negative control to determine background binding levels. Parental CHO and stably transfected CHO-hFOLR1, CHO-cFOLR1, and CHO-mFOLR1 cells were cultured in Ham's F-12: high glucose DMEM (50:50) (Corning, Cellgro-Mediatech) supplemented with 10% heat-inactivated fetal bovine serum (Corning, Cellgro-Mediatech), 1% Penicillin/Streptomycin (Corning, Cellgro-Mediatech) and 2 mmol/L-glutamax (Life Technology).
(§2) A mixture of fluoresecent-labeled parental CHO cells and unlabeled CHO-hFOLRlcells were prepared as follows. Parental CHO cells were washed twice in PBS and incubated in PBS containing with 1 nM CellTrace™ Oregon Green488® (Life Technologies) at 37° C. for 30 minutes. Labeled parental CHO cells were then washed 2× with Ham's F-12 media and 2× with FACS buffer (PBS with 1% bovine serum albumin). Unlabeled CHO-hFOLR1 cells were similarly washed and prepared. Labeled parental CHO and unlabeled CHO-hFOLR1 cells were combined at 1:1 ratio and seeded at 50 μL per well (200,000 cells per well) in 96 well polypropylene plates. Cells were mixed with 50 μL of test antibodies (i.e., anti-FOLR1 variants) serially diluted in FACS buffer and incubated on ice for 60 mins. […] Data were analyzed using FlowJo® software (FlowJo, LLC; Ashland, OR) to determine mean fluorescence intensities. Binding constants were calculated using the statistical software, GraphPad Prism (GraphPad Software; La Jolla, CA) using the nonlinear regression equation, one site-specific binding with Hill slope. Secondary antibody alone was used as a control, in addition to measuring non-specific antibody binding to CHO parental cells.

[2] = molecular target: T2, human folate receptor alpha (hFOLR1) (human, UniProt P15328 25-234); test: FACS, CHO-hFOLR1 cells;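 also: flow cytometry of serially diluted antibodies binding CHO cells stably expressing the receptor, 60 min on ice, mixed with dye-tagged parental CHO as background control, one-site specific fit with Hill slope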
T2 construct: endogenous on FOLR1-positive KB and Igrov1 cells (cell killing); also called human FolR1; FolRα
T2 sequence (P15328 25-234 limits assumed): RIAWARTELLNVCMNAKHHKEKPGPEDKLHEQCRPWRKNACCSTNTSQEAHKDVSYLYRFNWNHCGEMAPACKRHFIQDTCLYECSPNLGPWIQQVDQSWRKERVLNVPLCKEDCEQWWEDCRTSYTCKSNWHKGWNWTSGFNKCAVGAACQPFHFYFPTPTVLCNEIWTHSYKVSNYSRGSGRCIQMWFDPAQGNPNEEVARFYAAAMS

[3] = molecular target: T2, human folate receptor alpha (hFOLR1); test: cell-based or functional assay
[4] = molecular target: T3, cynomolgus monkey folate receptor alpha (cynomolgus monkey, UniProt P15328 25-234 (human entry)); test: FACS, CHO-cFOLR1 cells
T3 construct: Expressed on the surface of stably transfected CHO cells; also called cyno FolR1; CHO-cyno FolR1
T3 sequence (P15328 other isoform, or with tags, fused parts or gaps limits assumed): as the sequence (P15328 25-234 limits assumed) above, with I2T, W4R, R37K, Q117R, A146P, H171Y counted along it
Procedure: as §1, §2

human FOLR1-HIS [5] = molecular target: T4, human FOLR1-HIS (human, UniProt P15328 25-233); test: SPR (Biacore), antibody captured on anti-Fc, human FOLR1-HIS analyte, 25 C
T4 construct: Analyte of the Biacore assay; also called FolRα-ECD; extracellular domain of FOLR1; not shown: HIS tag
T4 sequence (P15328 25-233 limits assumed): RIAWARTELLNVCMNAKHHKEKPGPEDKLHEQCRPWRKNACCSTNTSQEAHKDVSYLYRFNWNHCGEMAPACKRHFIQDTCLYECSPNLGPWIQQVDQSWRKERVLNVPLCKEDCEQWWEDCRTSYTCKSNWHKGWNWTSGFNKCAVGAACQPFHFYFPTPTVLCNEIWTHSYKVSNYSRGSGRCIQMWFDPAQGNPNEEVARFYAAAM

[6] = molecular target: T5, human folate receptor alpha on cells (human, UniProt P15328 25-234); test: cell-based or functional assay
T5 sequence (P15328 25-234 limits assumed): as the sequence (P15328 25-234 limits assumed) above

[7] = molecular target: T6, human folate receptor beta on cells (human, UniProt P14207 17-230); test: cell-based or functional assay
T6 sequence (P14207 17-230): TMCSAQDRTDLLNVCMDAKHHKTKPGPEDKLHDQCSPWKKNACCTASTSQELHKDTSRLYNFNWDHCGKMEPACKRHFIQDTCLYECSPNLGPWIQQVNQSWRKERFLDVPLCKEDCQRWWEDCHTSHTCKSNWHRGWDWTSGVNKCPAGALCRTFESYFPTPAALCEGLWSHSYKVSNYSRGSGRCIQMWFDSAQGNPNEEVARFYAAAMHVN

[8] = molecular target: T5, human folate receptor alpha on cells; test: FACS cell binding (MFI) on 293T-hFOLR1 cells; parental 293T cells as negative control
[9] = molecular target: T5, human folate receptor alpha on cells; test: FACS cell binding (MFI) on 293T cells stably expressing hFOLR1 (293T-hFOLR1); parental 293T cells as negative control
[10] = molecular target: T7, human folate receptor alpha (hFOLR1) on cells (human, UniProt P15328 25-234); test: cell-based or functional assay
T7 sequence (P15328 25-234 limits assumed): as the sequence (P15328 25-234 limits assumed) above

[11] = molecular target: T6, human folate receptor beta on cells; test: FACS cell binding (MFI) on 293T cells stably expressing hFOLR2 (293T-hFOLR2); parental 293T cells as negative control
human FOLR1-HIS [12] = molecular target: T4, human FOLR1-HIS; test: SPR (Biacore)
[13] = molecular target: T8, cynomolgus folate receptor alpha on CHO cells (cynomolgus monkey, UniProt P15328 25-234 (human entry)); test: FACS cell binding on CHO-c-FOLRα cells (row 'Cross-reactivity, Cyno')
T8 construct: Stably expressed on CHO cells; also called CHO-c-FOLRα; CHO-cFOLR1
T8 sequence (P15328 other isoform, or with tags, fused parts or gaps limits assumed): as the sequence (P15328 25-234 limits assumed) above, with I2T, W4R, R37K, Q117R, A146P, H171Y counted along it
Procedure: as §1
(§3) A mixture of fluoresecent-labeled parental CHO cells and unlabeled CHO-hFOLRlcells were prepared as follows. Parental CHO cells were washed twice in PBS and incubated in PBS containing with 1 nM CellTrace™ Oregon Green488® (Life Technologies) at 37° C. for 30 minutes. Labeled parental CHO cells were then washed 2× with Ham's F-12 media and 2× with FACS buffer (PBS with 1% bovine serum albumin). Unlabeled CHO-hFOLR1 cells were similarly washed and prepared. […] Data were analyzed using FlowJo® software (FlowJo, LLC; Ashland, OR) to determine mean fluorescence intensities. Binding constants were calculated using the statistical software, GraphPad Prism (GraphPad Software; La Jolla, CA) using the nonlinear regression equation, one site-specific binding with Hill slope. […]

[14] = molecular target: T7, human folate receptor alpha (hFOLR1) on …; test: FACS cell binding on CHO-h-FOLRα cells
Procedure: as §1, §3

B1: SRP1848-E03 (antibody, V domains shown)
VH: EVQLVESGGGLAQPGGSLRLSCAASGFNIGNYYIHWVRQAPGKGLEWVGGITPRDGFTDYADSVKGRFTISADTSKNTAYLQVNSLRAEDTAVYYCARGSWSWPAGHSYYLDYWGQGTLVTVSS
VL: not shown
notes: HC variant paired with trastuzumab LC, cell-free expressed, HIS- and FLAG-tagged; also called Antibody 33
[1]
  Bmax (MFI): 5940 MFI
  Kd: 0.5 nM
[2]
  Bmax (MFI): 26700 MFI
  Kd: 0.76 nM
[3]
  Igrov, 2° Antibody Cell Killing, Nb-SC239: EC50: 0.027 nM
  Igrov, 2° Antibody Cell Killing, Nb-SC239: Span: 73%
  KB, 2° Antibody Cell Killing, Nb-239: EC50: 0.057 nM
  KB, 2° Antibody Cell Killing, Nb-239: Span: 94%
[4]
  Bmax (MFI): 17400 MFI
  Kd: 0.43 nM

B2: SRP2060-E10 (antibody, V domains shown)
VH: EVQLLESGGGLVQPGGSLRLSCAFSGFSLSTFGMGVGWVRQAPGKGLEWVSHIWWDDDKYYHPALKGRFTISKDNSKNTVYLQMNSLRAEDTAVYYCGRNHFPHYYGSSHWYFNVWGQGTTVTVSS
VL: EIVMTQSPATLSLSPGERATLSCKASQDINSYLSWYQQKPGQAPRLLIYRANRLVDGIPARFSGSGSGTDYTLTISSLEPEDFAVYYCLQYDEFPYTFGGGTKVEIK
notes: also called Antibody 56
Human FOLR1-HIS [5]
  Kd: 2.06 nM
  koff: 0.0012 s⁻¹
  kon: 582000 M⁻¹ s⁻¹

B3: SRP2060-B01 (antibody, V domains shown)
VH: EVQLLESGGGLVQPGGSLRLSCALSGFSLSTFGMGVGWVRQATGKGLEWVSHIWWDDDKYYHPALKGRFTISKDNSKNTVHLQMNSLRAEDTAVYYCGRNHFPHYYGSSHWYFNVWGQGTTVTVSS
VL: DIQMTQSPSTLSASVGDRVTITCKASQDINSYLSWYQQKPGKAPKLLIYRANRLVDGVPSRFSGSGSGTEFTLTISSLQPDDFATYYCLQYDEFPYTFGGGTKVEIK
notes: also called Antibody 58
Human FOLR1-HIS [5]
  Kd: 2.62 nM
  koff: 0.00147 s⁻¹
  kon: 561000 M⁻¹ s⁻¹

B4: SRP2060-E05 (antibody, V domains shown)
VH: EVQLLESGGGLVQPGGSLRLSCAFSGFSLSTFGMGVGWVRQAPGKGLEWVSHIWWDDDKYYHPALKGRFTVSKDNSKNTVYLQMNSLRAEDTAVYYCGRNHFPHYYGSSHWYFNVWGQGTTVTVSS
VL: EIVMTQSPATLSLSPGERATLSCKASQDINSYLSWYQQKPGQAPRLLIYRANRLVDGIPARFSGSGSGTDYTLTISSLEPEDFAVYYCLQYDEFPYTFGGGTKVEIK
notes: also called Antibody 57
Human FOLR1-HIS [5]
  Kd: 2.92 nM
  koff: 0.00158 s⁻¹
  kon: 541000 M⁻¹ s⁻¹

B5: SRP2060-A06 (antibody, V domains shown)
VH: EVQLLESGGGLVQPGGSLRLSCAFSGFSLSTFGMGVGWVRQAPGKGLEWVGHIWWDDDKYYYPALKGRFTISKDNSKNTVYLQMNSLRAEDTAVYYCGRNHFPHYYGSSHWYFDVWGQGTTVTVSS
VL: DIQMTQSPSTLSASVGDRVTITCKASQDINSYLSWYQQKPGKAPKLLIYRANRLVDGVPSRFSGSGSGTEFTLTISSLQPDDFATYYCLQYDEFPYTFGGGTKVEIK
notes: also called Antibody 59
Human FOLR1-HIS [5]
  Kd: 13.3 nM
  koff: 0.00729 s⁻¹
  kon: 547000 M⁻¹ s⁻¹

B6: ADC Molecule 4 (1848-H01, Y180/F404, Conjugate P) (antibody, V domains shown)
VH: EVQLVESGGGLVQPGGSLRLSCAASGFNIRTQSIHWVRQAPGKGLEWIGDIFPIDGITDYADSVKGRFTISADTSKNTAYLQMNSLRAEDTAVYYCARGSWSWPSGMDYYLDYWGQGTLVTVSS
VL: not shown
modifications: Non-natural amino acid (para-azidomethyl-L-phenylalanine) at HC-Y180 and HC-F404 (EU, in the constant region, which has no SEQ ID NO), each linked to cleavable ValCit hemiasterlin (Conjugate P); DAR about 3.7-3.8
[6]
  EC50 of cytotoxic activity on 293T cells expressing FolRα: < 10 nM
[7]
  EC50 of cytotoxic activity on 293T cells expressing FolRβ: ~100 nM

B7: antibody 1848-H01 (antibody, V domains shown)
VH: EVQLVESGGGLVQPGGSLRLSCAASGFNIRTQSIHWVRQAPGKGLEWIGDIFPIDGITDYADSVKGRFTISADTSKNTAYLQMNSLRAEDTAVYYCARGSWSWPSGMDYYLDYWGQGTLVTVSS
VL: not shown
notes: the light chain is that of trastuzumab; It was tested as an IgG (detected with anti-human IgG); also called SRP1848-H01
[8]
  EC50 (read off the curve): ~10 nM
[9]
  Kd: 9.9 nM

B8: ADC Molecule 4 (1848-H01, Y180/F404, Conjugate P) (antibody, V domains shown)
VH: EVQLVESGGGLVQPGGSLRLSCAASGFNIRTQSIHWVRQAPGKGLEWIGDIFPIDGITDYADSVKGRFTISADTSKNTAYLQMNSLRAEDTAVYYCARGSWSWPSGMDYYLDYWGQGTLVTVSS
VL: not shown
modifications: para-azidomethyl-L-phenylalanine at HC-Y180 and HC-F404 (EU numbering, heavy chain constant region), each linked to the cleavable hemiasterlin linker-drug of Conjugate P; DAR about 3.7-3.8
[10]
  cell killing EC50 on Igrov1 cells in the presence of 0.5 uM unconjugated 1848-H01 as competitor: > 33 nM
  cell killing EC50 on OVCAR3 cells in the presence of 0.5 uM unconjugated 1848-H01 as competitor: > 33 nM

B9: antibody 1848-B10 (antibody, V domains shown)
VH: EVQLVESGGGLVQPGGSLRLSCAASGFNTTTKSIHWVRQAPGKGLEWVGEIYPRDGITDYADSVKGRFTISADTSKNTAYLQMNSLRAEDTAVYYCARGGWHWRSGYSYYLDYWGQGTLVTVSS
VL: not shown
notes: the light chain is that of trastuzumab; It was tested as an IgG; also called SRP1848-B10
[9]
  Kd: 6.4 nM
[11]
  binding result: no binding

B10: 1848-B10, Y180/F404 (antibody, V domains shown)
VH: EVQLVESGGGLVQPGGSLRLSCAASGFNTTTKSIHWVRQAPGKGLEWVGEIYPRDGITDYADSVKGRFTISADTSKNTAYLQMNSLRAEDTAVYYCARGGWHWRSGYSYYLDYWGQGTLVTVSS
VL: not shown
modifications: para-azidomethyl-L-phenylalanine (pAMF) at HC-Y180 and HC-F404 (EU numbering; both lie in the heavy chain constant region, not in this VH piece)
notes: Lead antibody with non-natural amino acid sites Y180/F404
Human FOLR1-HIS [12]
  Kd: 1.4 nM
[13]
  Kd: 3.3 nM
[14]
  Kd: 4.5 nM

B11: 1848-H01, Y180/F404 (antibody, V domains shown)
VH: EVQLVESGGGLVQPGGSLRLSCAASGFNIRTQSIHWVRQAPGKGLEWIGDIFPIDGITDYADSVKGRFTISADTSKNTAYLQMNSLRAEDTAVYYCARGSWSWPSGMDYYLDYWGQGTLVTVSS
VL: not shown
modifications: para-azidomethyl-L-phenylalanine (pAMF) at HC-Y180 and HC-F404 (EU numbering; both lie in the heavy chain constant region, not in this VH piece)
notes: as for B10
Human FOLR1-HIS [12]
  Kd: 1 nM
[13]
  Kd: 3.8 nM
[14]
  Kd: 3.7 nM
